Results on 34 variants are retold here after the supplement of paper PMC6755084.

B1: F1*; the commonest letter at each place (parent)
chain: GAGACCGCAACTGAAAAGTTGTTATCACTTGTCGTAAGACACTTTGGATGGGTTGAAGTTCTGCACGTAGAAGCAAAAGGC

The variants in the series derive from B1. The series is described as follows: fraction ligated after 30 min (ligated reads / total reads); higher = more ligase activity. To be noted: with F1*sub RNA substrate (template-directed ligation), 42 °C. In outline: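 Oligo-pool templates underwent PCR amplification, T7 transcription and gel purification to yield ribozyme variants. Gel-separated ligated and unligated bands were converted to complementary DNA with barcoded primers and sequenced on a MiSeq, keeping core bases of quality ≥20. The ratio of ligated reads to total reads gave the fraction ligated for every variant.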
For the variant GAGACCGCAACTGAAAAGTTGTTATCACTTGTCGTAAGAGACTTTGGACGGGTTGAAGTTCTGCACGTAGAAGCAAAAGGC [C40G T49C], the fraction ligated came out at 0.365.
Regarding GAGACCGCAACTGAAAAGTTGTTATCACTTGTCGTAAGAGACTTTGGAAGGGTTGAAGTTCTGCACGTAGAAGCAAAAGGC [C40G T49A], the fraction ligated is 0.683.
With GAGACCGCAACTGAAAAGTTGTTATCACTTGTCGTAAGAGACTTTGGAGGGGTTGAAGTTCTGCACGTAGAAGCAAAAGGC [C40G T49G] the figure was 0.763; with GAGACCGCAACTGAAAAGTTGTTATCACTTGTCGTAAGATACTTTGGATGGGTTGATGTTCTGCACGTAGAAGCAAAAGGC [C40T A57T], 0.798.
As for GAGACCGCAACTGAAAAGTTGTTATCACTTGTCGTAAGATACTTTGGATGGGTTGACGTTCTGCACGTAGAAGCAAAAGGC [C40T A57C], the fraction ligated was 0.823.
With GAGACCGCAACTGAAAAGTTGTTATCACTTGTCGTAAGATACTTTGGATGGGTTGAGGTTCTGCACGTAGAAGCAAAAGGC [C40T A57G] the figure was 0.839; with GAGACCGCAACTGAAAAGTTGTTATCACTTGTCGTAAGAGAATTTGGATGGGTTGAAGTTCTGCACGTAGAAGCAAAAGGC [C40G C42A], 0.82.
The result for GAGACCGCAACTGAAAAGTTGTTATCACTTGTCGTAAGAGATTTTGGATGGGTTGAAGTTCTGCACGTAGAAGCAAAAGGC [C40G C42T] reads 0.8; that for GAGACCGCAACTGAAAAGTTGTTATCACTTGTCGTAAGAGAGTTTGGATGGGTTGAAGTTCTGCACGTAGAAGCAAAAGGC [C40G C42G], 0.826; that for GAGACCGCAACTGAAAAGTTGTTATCACTTGTCGTAAGAGACTTTGGATGGGTTTAAGTTCTGCACGTAGAAGCAAAAGGC [C40G G55T], 0.794.
The result for GAGACCGCAACTGAAAAGTTGTTATCACTTGTCGTAAGAGACTTTGGATGGGTTCAAGTTCTGCACGTAGAAGCAAAAGGC [C40G G55C] reads 0.659.
Consider GAGACCGCAACTGAAAAGTTGTTATCACTTGTCGTAAGAGACTTTGGATGGGTTAAAGTTCTGCACGTAGAAGCAAAAGGC [C40G G55A], for which the fraction ligated was found to be 0.808.
The result for GAGACCGCAACTGAAAAGTTGTTATCACTTGTCGTAAGATAATTTGGATGGGTTGAAGTTCTGCACGTAGAAGCAAAAGGC [C40T C42A] reads 0.845.
With GAGACCGCAACTGAAAAGTTGTTATCACTTGTCGTAAGATATTTTGGATGGGTTGAAGTTCTGCACGTAGAAGCAAAAGGC [C40T C42T], the fraction ligated turned out to be 0.853.
The result for GAGACCGCAACTGAAAAGTTGTTATCACTTGTCGTAAGATAGTTTGGATGGGTTGAAGTTCTGCACGTAGAAGCAAAAGGC [C40T C42G] reads 0.857; that for GAGACCGCAACTGAAAAGTTGTTATCACTTGTCGTAAGATACTCTGGATGGGTTGAAGTTCTGCACGTAGAAGCAAAAGGC [C40T T44C], 0.829; that for GAGACCGCAACTGAAAAGTTGTTATCACTTGTCGTAAGATACTGTGGATGGGTTGAAGTTCTGCACGTAGAAGCAAAAGGC [C40T T44G], 0.825.
The result for GAGACCGCAACTGAAAAGTTGTTATCACTTGTCGTAAGATACTATGGATGGGTTGAAGTTCTGCACGTAGAAGCAAAAGGC [C40T T44A] reads 0.831; that for GAGACCGCAACTGAAAAGTTGTTATCACTTGTCGTAAGATACTTTGGATGGGTTGTAGTTCTGCACGTAGAAGCAAAAGGC [C40T A56T], 0.799; that for GAGACCGCAACTGAAAAGTTGTTATCACTTGTCGTAAGATACTTTGGATGGGTTGGAGTTCTGCACGTAGAAGCAAAAGGC [C40T A56G], 0.801.
The result for GAGACCGCAACTGAAAAGTTGTTATCACTTGTCGTAAGATACTTTGGATGGGTTGCAGTTCTGCACGTAGAAGCAAAAGGC [C40T A56C] reads 0.773.
As for GAGACCGCAACTGAAAAGTTGTTATCACTTGTCGTAAGATACTTTGGAGGGGTTGAAGTTCTGCACGTAGAAGCAAAAGGC [C40T T49G], the fraction ligated amounted to 0.812.
The result for GAGACCGCAACTGAAAAGTTGTTATCACTTGTCGTAAGATACTTTGGACGGGTTGAAGTTCTGCACGTAGAAGCAAAAGGC [C40T T49C] reads 0.38.
Regarding GAGACCGCAACTGAAAAGTTGTTATCACTTGTCGTAAGATACTTTGGAAGGGTTGAAGTTCTGCACGTAGAAGCAAAAGGC [C40T T49A], the fraction ligated amounted to 0.792.
The result for GAGACCGCAACTGAAAAGTTGTTATCACTTGTCGTAAGATACTTTGGATTGGTTGAAGTTCTGCACGTAGAAGCAAAAGGC [C40T G50T] reads 0.784.
Regarding GAGACCGCAACTGAAAAGTTGTTATCACTTGTCGTAAGATACTTTGGATCGGTTGAAGTTCTGCACGTAGAAGCAAAAGGC [C40T G50C], the fraction ligated was 0.357.
With GAGACCGCAACTGAAAAGTTGTTATCACTTGTCGTAAGATACTTTGGATAGGTTGAAGTTCTGCACGTAGAAGCAAAAGGC [C40T G50A] the figure was 0.567.
The result for GAGACCGCAACTGAAAAGTTGTTATCACTTGTCGTAAGATACTTTGGATGGGTTGAAGTTCTGCACGTAGAAGCAAAAGGC [C40T] reads 0.833.
With GAGACCGCAACTGAAAAGTTGTTATCACTTGTCGTAAGATTCTTTGGATGGGTTGAAGTTCTGCACGTAGAAGCAAAAGGC [C40T A41T], the fraction ligated worked out at 0.822.
With GAGACCGCAACTGAAAAGTTGTTATCACTTGTCGTAAGATGCTTTGGATGGGTTGAAGTTCTGCACGTAGAAGCAAAAGGC [C40T A41G] the figure was 0.765; with GAGACCGCAACTGAAAAGTTGTTATCACTTGTCGTAAGATCCTTTGGATGGGTTGAAGTTCTGCACGTAGAAGCAAAAGGC [C40T A41C], 0.78; with GAGACCGCAACTGAAAAGTTGTTATCACTTGTCGTAAGAGACTTTAGATGGGTTGAAGTTCTGCACGTAGAAGCAAAAGGC [C40G G46A], 0.825.
With GAGACCGCAACTGAAAAGTTGTTATCACTTGTCGTAAGAGACTTTCGATGGGTTGAAGTTCTGCACGTAGAAGCAAAAGGC [C40G G46C] the figure was 0.801.
With GAGACCGCAACTGAAAAGTTGTTATCACTTGTCGTAAGAGACTTTTGATGGGTTGAAGTTCTGCACGTAGAAGCAAAAGGC [C40G G46T] the figure was 0.793.
